{
  "source": "patent US20030186334A1",
  "about": "“KTS-disintegrins” (Temple University - Of the Commonwealth System of Higher …, priority 2001, published 2003)",
  "key": {"[1]": {"biological_target": "T1, αIIbβ3 integrin (Homo sapiens, UniProt P05106+P08514)", "T1 construct": "expressed in transfected cells; host or cells: A5 cells", "assay": "adhesion of A5 cells to fibrinogen", "type": "cell-based", "experimental": "(§1) Adhesive ligands for the selected integrins consisted of collagen IV (0.2 μg/well), collagen I, fibronectin, or vascular cell adhesion molecule-1 (VCAM-1). Adhesive ligands in 0.02 M acetic acid were immobilized overnight at 4° C. on a 96-well plate. Plates were then blocked with 1% (w/v) BSA (bovine serum albumin) in Hank's Balanced Salt Solution (HBSS) containing 3 mM Mg^2+ at room temperature for 1-2 hours to prevent cells from non-specifically binding to the plates. α1K562, α2K562, K562, A5, and Jurkat cells expressing the α1β1, α2β1, α5β1, αIIbβ3, and α4β1 integrins respectively were labeled by incubation with 12.5 μM 5-chloromethylfluorescein diacetate (CMFDA) in HBSS for 15 minutes at 37° C. CMFDA labeled cells were then pelleted, washed and resuspended in HBSS buffer containing 3 mM Mg^2+ and 1% (w/v) BSA. […] Plates were then incubated at 37° C. for 30 minutes as indicated in Table 5 and washed three times with HBSS containing 3 mM Mg^2+ and 1% (w/v) BSA to remove unbound cells. Bound cells were lysed using 0.5% (v/v) Triton X-100 in H2O. Fluorescent CMFDA released by lysis of adherent cells in a given well was read using a Cytofluor 2350 fluorescence plate reader.\n(§2) The effect of obtustatin, viperisrastatin, echistatin, and eristostatin on the binding of selected integrins to their adhesive ligands was evaluated using the cell adhesion assay described in Example 6. The integrin-expressing cells, integrins and corresponding adhesive ligands, and the results of the cell adhesion assay are shown in Table 6."}, "[2]": {"tested_on": "human melanoma cells (MV3)", "assay": "apoptosis by caspase-3 levels in melanoma MV3 cells", "type": "cell-based", "experimental": "(§3) The mechanisms of the cancer-suppressing effect observed for obtustatin were investigated as follows. Dermal microvascular endothelial cells (EC) and human melanoma cells (MV3) were cultured and exposed to TNF-α, vincristine and obtustatin. (TNF-α and vincristine are compounds which induce cell death by apoptosis in both normal and cancerous cells.) Control cells received only vehicle. The extent of apoptosis was measured by determining caspase-3 levels."}, "[3]": {"biological_target": "T2, αvβ3 integrin (Homo sapiens, UniProt P05106+P06756)", "T2 construct": "endogenous in cells; host or cells: JY cells", "assay": "adhesion of JY cells to vitronectin", "type": "cell-based", "conditions": "αvβ3, VN"}, "[4]": {"biological_target": "T3, α6β1 integrin (Homo sapiens, UniProt P05556+P23229)", "T3 construct": "expressed in transfected cells; host or cells: α6K562 cells", "T3 sequence (P23229 24-938 limits assumed)": "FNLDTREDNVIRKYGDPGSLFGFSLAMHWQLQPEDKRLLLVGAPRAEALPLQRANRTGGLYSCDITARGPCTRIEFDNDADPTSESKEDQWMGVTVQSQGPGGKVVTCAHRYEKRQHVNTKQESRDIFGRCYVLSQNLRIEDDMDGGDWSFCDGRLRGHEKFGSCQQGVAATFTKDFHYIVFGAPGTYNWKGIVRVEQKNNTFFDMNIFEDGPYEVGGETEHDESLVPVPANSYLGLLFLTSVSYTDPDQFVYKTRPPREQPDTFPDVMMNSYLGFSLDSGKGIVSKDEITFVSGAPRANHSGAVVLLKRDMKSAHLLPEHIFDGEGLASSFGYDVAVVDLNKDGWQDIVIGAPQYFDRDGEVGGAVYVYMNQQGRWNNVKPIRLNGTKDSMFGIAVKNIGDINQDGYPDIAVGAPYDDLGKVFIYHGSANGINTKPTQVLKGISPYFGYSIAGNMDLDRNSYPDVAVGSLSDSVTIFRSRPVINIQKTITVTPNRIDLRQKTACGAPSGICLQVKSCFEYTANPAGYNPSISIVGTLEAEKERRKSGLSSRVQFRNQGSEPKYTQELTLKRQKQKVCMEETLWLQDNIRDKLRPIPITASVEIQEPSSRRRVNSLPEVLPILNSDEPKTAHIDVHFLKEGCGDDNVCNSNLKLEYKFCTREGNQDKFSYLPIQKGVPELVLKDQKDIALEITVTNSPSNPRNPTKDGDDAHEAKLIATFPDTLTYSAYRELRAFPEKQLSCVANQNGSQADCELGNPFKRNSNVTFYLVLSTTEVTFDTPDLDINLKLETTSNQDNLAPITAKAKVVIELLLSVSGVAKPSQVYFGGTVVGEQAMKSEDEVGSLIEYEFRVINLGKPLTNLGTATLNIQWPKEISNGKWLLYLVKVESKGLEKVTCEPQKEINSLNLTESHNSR", "T3 sequence (P23229 942-1130 partner limits assumed)": "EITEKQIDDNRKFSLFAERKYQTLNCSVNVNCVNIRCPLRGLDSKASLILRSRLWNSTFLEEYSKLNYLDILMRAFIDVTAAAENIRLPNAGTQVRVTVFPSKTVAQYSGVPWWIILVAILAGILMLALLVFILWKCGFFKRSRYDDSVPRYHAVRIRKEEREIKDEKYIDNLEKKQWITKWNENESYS", "T3 sequence (P05556 21-798)": "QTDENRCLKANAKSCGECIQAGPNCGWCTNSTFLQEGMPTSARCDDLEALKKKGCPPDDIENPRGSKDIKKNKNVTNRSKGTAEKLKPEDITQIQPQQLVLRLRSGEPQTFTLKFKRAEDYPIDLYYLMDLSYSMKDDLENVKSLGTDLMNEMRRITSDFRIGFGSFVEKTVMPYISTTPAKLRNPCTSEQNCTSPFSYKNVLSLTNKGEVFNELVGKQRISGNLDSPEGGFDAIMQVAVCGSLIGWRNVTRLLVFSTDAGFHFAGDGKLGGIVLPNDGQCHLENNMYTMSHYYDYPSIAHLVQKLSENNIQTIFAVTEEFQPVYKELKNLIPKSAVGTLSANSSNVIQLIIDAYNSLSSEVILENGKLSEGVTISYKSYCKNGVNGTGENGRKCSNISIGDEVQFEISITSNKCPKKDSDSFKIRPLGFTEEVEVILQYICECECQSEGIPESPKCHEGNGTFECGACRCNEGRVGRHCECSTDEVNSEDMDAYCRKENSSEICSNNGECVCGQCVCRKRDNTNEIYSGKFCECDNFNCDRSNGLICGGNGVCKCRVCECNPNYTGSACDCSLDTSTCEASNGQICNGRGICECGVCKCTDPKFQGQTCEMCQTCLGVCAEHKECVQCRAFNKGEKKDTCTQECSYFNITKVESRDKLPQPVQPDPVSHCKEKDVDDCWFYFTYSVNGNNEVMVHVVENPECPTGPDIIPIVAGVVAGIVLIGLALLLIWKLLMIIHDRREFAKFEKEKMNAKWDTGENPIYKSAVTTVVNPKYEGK", "assay": "adhesion of α6K562 cells to laminin", "type": "cell-based", "conditions": "α6β1, LM"}, "[5]": {"tested_on": "dermal microvascular endothelial cells (EC)", "assay": "apoptosis by caspase-3 levels in dermal microvascular endothelial cells", "type": "cell-based", "experimental": "as §3"}, "[6]": {"biological_target": "T4, α1β1 integrin (Homo sapiens, UniProt P05556+P56199)", "T4 construct": "expressed in transfected cells; host or cells: α1K562 cells", "assay": "adhesion of HS.939T cells to collagen IV", "type": "cell-based", "conditions": "α1β1, Coll IV"}, "[7]": {"tested_on": "angiogenesis", "assay": "Japanese quail chorioallantoic membrane (CAM) angiogenesis assay", "type": "in vivo", "conditions": "20 μg and 50 μg, no angiogenesis stimulators", "experimental": "The disintegrins obtustatin and eristostatin were evaluated for their effect on angiogenesis via a Japanese quail chorioallantoic membrane (CAM) assay, as is known in the art (see, for example, Parsons-Wingerter P et al., “A Novel Assay of Angiogenesis in the Quail Chorioallantoic Membrane: Stimulation by bFGF and Inhibition by Angiostatin According to Fractal Dimension and Grid Intersection.” Microvascular Research 55(3):201-214, 1998, the disclosure of which is herein incorporated by reference)."}, "[8]": {"tested_on": "melanoma cells (HS.939T)", "assay": "BrdU incorporation growth assay in HS.939T melanoma cells", "type": "cell-based, human", "conditions": "2 μM", "experimental": "(§4) Human microvascular endothelial cells (HMVECs) and melanoma cells (HS.939T) were cultured and treated with vehicle (control), 2 μM obtustatin, 2 μM echistatin or 50 ng/ml TNF-α. Growth of the cells was determined by a standard BrdU incorporation assay (Chemicon), according to the manufacturer's instructions."}, "[9]": {"tested_on": "human microvascular endothelial cells (HMVECs)", "assay": "BrdU incorporation growth assay in HMVECs", "type": "cell-based", "conditions": "2 μM", "experimental": "as §4"}, "[10]": {"biological_target": "T5, α1β1 integrin (Mus musculus, UniProt P09055+Q3V3R4)", "T5 construct": "endogenous in cells; host or cells: B16F10 cells", "T5 sequence (Q3V3R4 29-1179)": "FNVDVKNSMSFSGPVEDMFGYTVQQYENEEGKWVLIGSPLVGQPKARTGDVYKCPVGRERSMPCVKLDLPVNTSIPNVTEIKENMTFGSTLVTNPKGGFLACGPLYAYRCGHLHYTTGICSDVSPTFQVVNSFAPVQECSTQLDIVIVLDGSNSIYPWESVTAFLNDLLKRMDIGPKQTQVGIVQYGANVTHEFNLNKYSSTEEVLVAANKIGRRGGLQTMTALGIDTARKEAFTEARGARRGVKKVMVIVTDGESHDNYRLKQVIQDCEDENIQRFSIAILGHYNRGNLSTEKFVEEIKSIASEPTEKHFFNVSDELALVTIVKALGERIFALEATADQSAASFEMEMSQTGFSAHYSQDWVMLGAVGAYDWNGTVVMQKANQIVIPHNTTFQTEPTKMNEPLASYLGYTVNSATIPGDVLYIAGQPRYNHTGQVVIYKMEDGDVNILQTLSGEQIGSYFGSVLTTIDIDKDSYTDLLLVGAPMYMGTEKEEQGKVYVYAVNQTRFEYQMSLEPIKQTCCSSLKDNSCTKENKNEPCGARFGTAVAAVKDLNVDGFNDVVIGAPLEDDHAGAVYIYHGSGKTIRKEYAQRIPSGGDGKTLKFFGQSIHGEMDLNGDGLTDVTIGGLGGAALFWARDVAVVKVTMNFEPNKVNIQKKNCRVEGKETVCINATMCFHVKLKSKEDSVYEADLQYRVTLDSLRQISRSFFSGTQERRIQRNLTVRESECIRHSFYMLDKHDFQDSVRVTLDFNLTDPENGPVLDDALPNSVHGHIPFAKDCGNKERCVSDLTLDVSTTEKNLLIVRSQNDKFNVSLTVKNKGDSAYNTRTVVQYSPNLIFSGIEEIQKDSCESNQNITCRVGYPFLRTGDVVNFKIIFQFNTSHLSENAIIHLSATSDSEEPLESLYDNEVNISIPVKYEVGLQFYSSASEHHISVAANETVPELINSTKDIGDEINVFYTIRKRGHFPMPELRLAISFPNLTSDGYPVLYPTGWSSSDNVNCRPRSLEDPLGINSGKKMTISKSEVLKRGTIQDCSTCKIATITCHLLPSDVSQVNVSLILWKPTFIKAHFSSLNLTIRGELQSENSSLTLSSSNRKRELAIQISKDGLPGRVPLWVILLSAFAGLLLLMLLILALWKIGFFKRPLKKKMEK", "T5 sequence (P09055 21-798)": "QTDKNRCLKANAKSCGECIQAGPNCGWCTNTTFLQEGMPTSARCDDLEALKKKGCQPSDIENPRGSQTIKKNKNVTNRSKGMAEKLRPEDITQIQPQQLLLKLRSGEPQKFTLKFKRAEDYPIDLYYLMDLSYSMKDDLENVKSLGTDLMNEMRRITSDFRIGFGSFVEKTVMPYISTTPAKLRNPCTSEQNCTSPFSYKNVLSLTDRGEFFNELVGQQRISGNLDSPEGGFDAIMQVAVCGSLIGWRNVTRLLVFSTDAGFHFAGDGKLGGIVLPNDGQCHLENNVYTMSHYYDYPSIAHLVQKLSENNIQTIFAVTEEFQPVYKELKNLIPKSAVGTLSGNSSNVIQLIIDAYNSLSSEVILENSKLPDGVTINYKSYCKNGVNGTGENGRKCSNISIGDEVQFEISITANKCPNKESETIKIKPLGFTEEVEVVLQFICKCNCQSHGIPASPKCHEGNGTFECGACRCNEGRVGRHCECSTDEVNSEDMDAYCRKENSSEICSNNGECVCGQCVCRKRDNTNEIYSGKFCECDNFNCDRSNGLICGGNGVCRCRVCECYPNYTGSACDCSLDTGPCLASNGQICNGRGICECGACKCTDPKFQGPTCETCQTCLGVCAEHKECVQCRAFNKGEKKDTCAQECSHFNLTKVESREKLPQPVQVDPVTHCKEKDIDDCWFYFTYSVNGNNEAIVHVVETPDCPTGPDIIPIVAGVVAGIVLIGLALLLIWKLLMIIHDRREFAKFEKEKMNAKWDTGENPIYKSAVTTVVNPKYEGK", "assay": "adhesion of B16F10 cells to collagen IV", "type": "cell-based", "conditions": "α1β1, Coll IV"}, "[11]": {"biological_target": "T6, α5β1 integrin (Homo sapiens, UniProt P05556+P08648)", "T6 construct": "endogenous in cells; host or cells: K562 cells", "T6 sequence (P08648 42-894 limits assumed)": "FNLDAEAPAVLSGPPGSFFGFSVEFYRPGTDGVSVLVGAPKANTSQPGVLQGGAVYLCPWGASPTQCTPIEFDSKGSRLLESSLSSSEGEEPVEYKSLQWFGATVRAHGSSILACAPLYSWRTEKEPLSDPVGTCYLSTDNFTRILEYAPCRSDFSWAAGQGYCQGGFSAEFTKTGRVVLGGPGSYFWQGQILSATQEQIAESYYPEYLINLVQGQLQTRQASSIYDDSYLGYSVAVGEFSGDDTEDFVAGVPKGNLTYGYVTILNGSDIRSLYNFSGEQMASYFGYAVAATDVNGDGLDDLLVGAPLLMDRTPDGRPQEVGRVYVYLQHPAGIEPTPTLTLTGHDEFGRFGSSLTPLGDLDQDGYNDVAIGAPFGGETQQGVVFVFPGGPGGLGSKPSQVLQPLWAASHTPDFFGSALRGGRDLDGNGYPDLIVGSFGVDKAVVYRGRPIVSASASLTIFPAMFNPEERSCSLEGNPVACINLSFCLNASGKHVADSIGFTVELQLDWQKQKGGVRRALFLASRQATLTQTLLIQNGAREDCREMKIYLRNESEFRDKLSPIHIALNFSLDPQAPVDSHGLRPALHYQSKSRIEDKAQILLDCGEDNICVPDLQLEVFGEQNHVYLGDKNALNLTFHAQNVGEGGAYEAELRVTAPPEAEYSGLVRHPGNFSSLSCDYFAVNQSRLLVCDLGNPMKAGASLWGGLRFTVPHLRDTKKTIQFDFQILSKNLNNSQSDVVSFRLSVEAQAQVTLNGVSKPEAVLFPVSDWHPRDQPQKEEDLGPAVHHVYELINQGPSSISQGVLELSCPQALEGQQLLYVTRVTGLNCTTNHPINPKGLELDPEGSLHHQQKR", "T6 sequence (P08648 895-1049 partner limits assumed)": "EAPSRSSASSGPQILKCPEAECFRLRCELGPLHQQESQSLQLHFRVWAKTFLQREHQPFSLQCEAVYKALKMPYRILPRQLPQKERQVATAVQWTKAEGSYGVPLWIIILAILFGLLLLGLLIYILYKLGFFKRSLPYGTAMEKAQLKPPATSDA", "T6 sequence (P05556 21-798)": "as the sequence (P05556 21-798) above", "assay": "adhesion of K562 cells to fibronectin", "type": "cell-based", "experimental": "as §1, §2"}, "[12]": {"tested_on": "Lewis lung carcinoma", "assay": "Lewis lung carcinoma growth in syngeneic mouse model", "type": "in vivo, C57BL/6 mice", "conditions": "5 mg/kg intraperitoneally once daily for eight days", "experimental": "Lewis lung carcinoma cells (1×10^6) were injected under the skin of the C57BL/6 mice (Tacoma Inc., Germantown, N.Y.), and tumors were allowed to grow for one week. The average tumor size after one week of growth was approximately 0.08 cm^3. The one-week time-point was called “day 0.” Two treatment groups of four mice each were injected intraperitoneally once daily with either 5 mg/kg obtustatin or 5 mg/kg echistatin beginning on day 0 for a total of eight days. A control group of four mice received only PBS. Tumor volume was measured daily using the formula length×width^2×0.52."}},
  "data": [
    {"substance": "Obtustatin (CTTGPCCRQCKLKPAGTTCWKTSLTSHYCTGKSCDCPLYPG)", "values": [
      {"measurement": "IC50", "setting": "[1]", "value": "> 10", "unit": "µM"},
      {"measurement": "apoptosis (caspase-3)", "setting": "[2]", "value": "not in MV3 cells"},
      {"measurement": "IC50", "setting": "[3]", "value": "> 10", "unit": "µM"},
      {"measurement": "IC50", "setting": "[4]", "value": "> 10", "unit": "µM"},
      {"measurement": "apoptosis (caspase-3)", "setting": "[5]", "value": "induced significant apoptosis"},
      {"measurement": "IC50", "setting": "[6]", "value": 0.0001, "unit": "µM"},
      {"measurement": "inhibitory activity on angiogenesis (fractal dimension)", "setting": "[7]", "value": "up to 30 % of control"},
      {"measurement": "growth (BrdU incorporation)", "setting": "[8]", "value": "not the HS.939T melanoma cells"},
      {"measurement": "growth (BrdU incorporation)", "setting": "[9]", "value": "inhibited growth"},
      {"measurement": "IC50", "setting": "[10]", "value": 0.0002, "unit": "µM"},
      {"measurement": "IC50", "setting": "[11]", "value": "> 10", "unit": "µM"},
      {"measurement": "inhibition of tumor development (tumor volume)", "setting": "[12]", "value": "by about half"}
    ]}
  ]
}
